Experimental data reported in patent US20240301086A1 (APTEVO RESEARCH AND DEVELOPMENT, published 2024).

T1: Full-length cynomolgus monkey PSMA (TSC308), on cells (cynomolgus monkey, UniProt Q04609 1-750 (human entry))
T1 construct: also called cyno PSMA; CHOK1SV/cynoPSMA
T1 chain: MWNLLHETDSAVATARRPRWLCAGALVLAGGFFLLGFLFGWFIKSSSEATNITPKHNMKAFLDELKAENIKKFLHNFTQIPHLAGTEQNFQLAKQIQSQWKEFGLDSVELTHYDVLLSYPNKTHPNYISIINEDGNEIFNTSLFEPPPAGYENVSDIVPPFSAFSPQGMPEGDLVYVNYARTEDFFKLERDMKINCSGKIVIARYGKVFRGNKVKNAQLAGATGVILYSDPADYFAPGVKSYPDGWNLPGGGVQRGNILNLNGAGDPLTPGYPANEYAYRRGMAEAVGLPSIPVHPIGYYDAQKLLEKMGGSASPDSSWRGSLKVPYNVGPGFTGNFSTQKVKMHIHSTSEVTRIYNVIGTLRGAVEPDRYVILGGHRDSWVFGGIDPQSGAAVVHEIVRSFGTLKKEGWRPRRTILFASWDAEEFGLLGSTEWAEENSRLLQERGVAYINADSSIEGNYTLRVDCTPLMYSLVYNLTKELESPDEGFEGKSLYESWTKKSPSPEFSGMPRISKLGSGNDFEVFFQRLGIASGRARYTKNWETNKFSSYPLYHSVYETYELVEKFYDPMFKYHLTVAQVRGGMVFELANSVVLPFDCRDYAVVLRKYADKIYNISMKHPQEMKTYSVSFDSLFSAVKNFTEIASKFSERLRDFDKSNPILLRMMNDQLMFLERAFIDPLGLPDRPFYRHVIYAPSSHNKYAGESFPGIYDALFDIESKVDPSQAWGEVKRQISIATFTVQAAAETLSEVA


Assays:
[1] = target: T1, Full-length cynomolgus monkey PSMA …; test: cell binding on CHOK1SV/cynoPSMA transfectants, MSD electrochemiluminescence (ECL), SULFO-TAG goat anti-human IgG
Experimental: (§1) To measure the relative binding activity of humanized PSMA-binding domain variants, constructs were tested in cell binding assays on CHOK1SV cells transfected with human or cynomolgus PSMA. The generation of CHOK1SV/huPSMA cells was described earlier; CHOK1SV/cynoPSMA cells were generated using the same method. Bivalent PSMA-binding domains variants in scFv-Fc format (constructs PSMA01019, PSMA01020, PSMA01021, PSMA01023, PSMA01024 and PSMA01025) were tested in these assays.
(§2) Binding studies on CHOK1SV transfectants were performed in live cell-based ELISA using electrochemiluminescence (Meso Scale Discovery). CHOK1SV cells were washed and seeded at 50,000 cells/well in 1× Hank's Balanced Salt Solution (HBSS) on 96-well Multi-Array High Bind plates (Meso Scale Discovery) and incubated at 37° C. for one hour. Following a blocking step in PBS buffer with 20% FBS, serial dilutions of PSMA-binding constructs (from 0.002 to 100 nM) were added in PBS buffer with 10% FBS and incubated at room temperature for one hour. Plates were washed with PBS and the specific binding levels were detected by SULFO TAG-labeled goat anti-human IgG antibody (Meso Scale Discovery #R32AJ). Following an hour incubation and wash steps, 150 μL/well surfactant free 1× Read Buffer T were added and samples were analyzed on MSD Sector Imager (Meso Scale Discovery). Resulting electrochemiluminescence (ECL) values versus concentrations were plotted and nonlinear regression analysis to determine EC50 values was performed in GraphPad Prism 7® graphing and statistics software.

[2] = target: T2, Full-length Human PSMA (TSC435), on cells (human, UniProt Q04609 1-750); test: cell binding on CHOK1SV/humanPSMA transfectants, MSD electrochemiluminescence (ECL), SULFO-TAG goat anti-human IgG
T2 construct: also called CHOK1SV/huPSMA; PSMA on C4-2B, 22RV1, LNCaP, MDA-PCa-2b cells
Experimental: as §1, §2

[3] = target: T3, Human PSMA ECD-AFH (TSC033), recombinant dimeric PSMA ECD (human, UniProt Q04609 44-750); test: SPR (Biacore T200), scFv-Fc captured on anti-human IgG, dimeric PSMA ECD as analyte, 1:1 fit
T3 construct: SEC-purified dimer; also called HuPSMA-AFH; Avi-His-Human PSMA ECD
Experimental: Mouse anti-human IgG (GE, BR-1008-39) at 25 μg/ml in 10 mM sodium acetate pH 5.0 was immobilized at a density of ˜2,000-4,000 response units (RU) onto each flow cell of a CM5 research-grade sensor chip (GE) by standard amine coupling chemistry. Each anti-PSMA protein at approximately 40 nM in dPBS with 0.2% BSA buffer was captured in a flow cell with the immobilized anti-human IgG at a flow rate of […] for up to 30 seconds, leaving one flow cell surface unmodified as the reference. Using a multi-cycle kinetics mode, a buffer blank and […] different concentrations of ECD ranging from 1 nM to 243 nM were sequentially injected through each flow cell at 30 μL/min with association times varying from 300-600 seconds and dissociation times varying from 600-1200 seconds. Regeneration was achieved by injection of 3 M MgCl₂ at a flow rate of 30 μL/min for up to 40 seconds followed by dPBS with 0.2% BSA buffer stabilization for 1 min.
Sensorgrams obtained from kinetic SPR measurements were analyzed using the double subtraction method. The signal from the reference flow cell was subtracted from the analyte binding response obtained from flow cells with captured ligands. The buffer blank response was then subtracted from analyte binding responses and the final double-referenced data were analyzed with Biacore T200 Evaluation software (2.0, GE), globally fitting data to derive kinetic parameters. All sensorgrams were fitted using a simple one-to-one binding model.

T3 sequence (Q04609 other isoform, or with tags, fused parts or gaps): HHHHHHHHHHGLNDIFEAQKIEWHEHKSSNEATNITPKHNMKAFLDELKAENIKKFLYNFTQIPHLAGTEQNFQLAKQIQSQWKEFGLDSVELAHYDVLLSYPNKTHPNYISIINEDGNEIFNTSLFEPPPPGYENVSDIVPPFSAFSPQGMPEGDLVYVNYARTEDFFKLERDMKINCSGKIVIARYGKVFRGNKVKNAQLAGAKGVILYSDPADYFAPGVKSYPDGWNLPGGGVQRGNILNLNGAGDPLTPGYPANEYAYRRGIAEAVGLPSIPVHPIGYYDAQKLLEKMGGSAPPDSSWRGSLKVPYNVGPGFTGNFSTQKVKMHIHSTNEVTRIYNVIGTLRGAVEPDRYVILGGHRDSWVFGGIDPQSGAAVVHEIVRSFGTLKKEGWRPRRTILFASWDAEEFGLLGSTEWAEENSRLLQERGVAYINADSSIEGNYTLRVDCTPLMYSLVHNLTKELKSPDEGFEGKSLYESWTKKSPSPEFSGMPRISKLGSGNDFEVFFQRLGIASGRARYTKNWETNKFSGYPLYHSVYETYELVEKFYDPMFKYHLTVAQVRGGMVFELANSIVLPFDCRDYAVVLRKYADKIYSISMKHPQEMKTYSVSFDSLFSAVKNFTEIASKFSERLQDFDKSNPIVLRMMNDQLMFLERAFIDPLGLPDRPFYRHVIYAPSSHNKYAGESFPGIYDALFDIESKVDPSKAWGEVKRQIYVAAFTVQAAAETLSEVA

Row | Binder | EC50 [1] | EC50 [2] | Kd [3] | koff [3] | kon [3]
1 | PSMA01012 Anti-PSMA scFv-Fc (Fc fusion, Monospecific, bivalent scFv-Fc, scFv in VL-VH orientation; also called parent construct) DIQMTQSPSAMSASVGDRVTITCRASKSISKYLAWFQQKPGKVPKLRIHSGSTLQSGVPSRFSGSGSGTEFTLTISSLQPEDFATYYCQQHIEYPWTFGQGTKVEIKRGGGGSGGGGSGGGGSQVQLVQSGAEVKKPGASVKVSCKASGYTFTDYYMHWVRQAPGQGLEWMGYFNPYNDYTRYAQKFQGRVTMTRDTSISTAYMELSSLRSDDTAVYYCARSDGYYDAMDYWGQGTTVTVSSSEPKSSDKTHTCPPCPAPEAAGAPSVFLFPPKPKDTLMISRTPEVTCVVVDVSHEDPEVKFNWYVDGVEVHNAKTKPREEQYNSTYRVVSVLTVLHQDWLNGKEYKCAVSNKALPAPIEKTISKAKGQPREPQVYTLPPSRDELTKNQVSLTCLVKGFYPSDIAVEWESNGQPENNYKTTPPVLDSDGSFFLYSKLTVDKSRWQQGNVFSCSVMHEALHNHYTQKSLSLSPGK | 8 nM | 6 nM | 40 nM | 0.0011 s⁻¹ | 27000 M⁻¹ s⁻¹
2 | PSMA01023 Anti PSMA scFv-Fc (Fc fusion, Monospecific, bivalent scFv-Fc, VL-VH; Contains germlining set G11) DIQMTQSPSTLSASVGDRVTITCRASKSISKYLAWYQQKPGKAPKLLIHSGSSLESGVPSRFSGSGSGTEFTLTISSLQPDDFATYYCQQHIEYPWTFGQGTKVEIKGGGGSGGGGSGGGGSGGGGSQVQLVQSGAEVKKPGASVKVSCKASGYTFTDYYMHWVRQAPGQGLEWMGYFNPYNDYTRYAQKFQGRVTMTRDTSTSTVYMELSSLRSEDTAVYYCARSDGYYDAMDYWGQGTTVTVSSSEPKSSDKTHTCPPCPAPEAAGAPSVFLFPPKPKDTLMISRTPEVTCVVVDVSHEDPEVKFNWYVDGVEVHNAKTKPREEQYNSTYRVVSVLTVLHQDWLNGKEYKCAVSNKALPAPIEKTISKAKGQPREPQVYTLPPSRDELTKNQVSLTCLVKGFYPSDIAVEWESNGQPENNYKTTPPVLDSDGSFFLYSKLTVDKSRWQQGNVFSCSVMHEALHNHYTQKSLSLSPGK | 5 nM | 1 nM | 40 nM | 0.00018 s⁻¹ | 4500 M⁻¹ s⁻¹
3 | PSMA01021 Anti-PSMA scFv-Fc (Fc fusion, Monospecific, bivalent scFv-Fc, VL-VH) DVQITQSPSTLSASVGDRVTITCRASKSISKYLAWYQQKPGKAPKLLIHSGSSLESGVPSRFSGSGSGTEFTLTISSLQPDDFATYYCQQHIEYPWTFGQGTKVEIKGGGGSGGGGSGGGGSGGGGSQVQLVQSGAEVKKPGASVKVSCKASGYTFTDYYMHWVRQAPGQGLEWMGYFNPYNDYTRYAQKFQGRVTMTRDTSISTAYMELSSLRSDDTAVYYCARSDGYYDAMDYWGQGTTVTVSSSEPKSSDKTHTCPPCPAPEAAGAPSVFLFPPKPKDTLMISRTPEVTCVVVDVSHEDPEVKFNWYVDGVEVHNAKTKPREEQYNSTYRVVSVLTVLHQDWLNGKEYKCAVSNKALPAPIEKTISKAKGQPREPQVYTLPPSRDELTKNQVSLTCLVKGFYPSDIAVEWESNGQPENNYKTTPPVLDSDGSFFLYSKLTVDKSRWQQGNVFSCSVMHEALHNHYTQKSLSLSPGK | 6 nM | 2 nM | 18 nM | 0.00017 s⁻¹ | 9400 M⁻¹ s⁻¹
4 | PSMA01024 Anti-PSMA scFv-Fc (Fc fusion, Monospecific, bivalent scFv-Fc, VL-VH) DVQITQSPSTLSASVGDRVTITCRASKSISKYLAWYQQKPGKAPKLLIHSGSSLESGVPSRFSGSGSGTEFTLTISSLQPDDFATYYCQQHIEYPWTFGQGTKVEIKGGGGSGGGGSGGGGSGGGGSQVQLVQSGAEVKKPGASVKVSCKASGYTFTDYYMHWVRQAPGQGLEWMGIFNPYNDYTSYAQKFQGRVTMTRDTSTSTVYMELSSLRSEDTAVYYCARSDGYYDAMDYWGQGTTVTVSSSEPKSSDKTHTCPPCPAPEAAGAPSVFLFPPKPKDTLMISRTPEVTCVVVDVSHEDPEVKFNWYVDGVEVHNAKTKPREEQYNSTYRVVSVLTVLHQDWLNGKEYKCAVSNKALPAPIEKTISKAKGQPREPQVYTLPPSRDELTKNQVSLTCLVKGFYPSDIAVEWESNGQPENNYKTTPPVLDSDGSFFLYSKLTVDKSRWQQGNVFSCSVMHEALHNHYTQKSLSLSPGK | 9 nM | 12 nM | 299 nM | 0.0026 s⁻¹ | 8500 M⁻¹ s⁻¹
5 | PSMA01025 Anti-PSMA scFv-Fc (Fc fusion, Monospecific, bivalent scFv-Fc, VL-VH) DIQMTQSPSTLSASVGDRVTITCRASKSISKYLAWYQQKPGKAPKLLIHSGSSLESGVPSRFSGSGSGTEFTLTISSLQPDDFATYYCQQHIEYPWTFGQGTKVEIKGGGGSGGGGSGGGGSGGGGSQVQLVQSGAEVKKPGASVKVSCKASGYTFTDYYMHWVRQAPGQGLEWMGIFNPYNDYTSYAQKFQGRVTMTRDTSTSTVYMELSSLRSEDTAVYYCARSDGYYDAMDYWGQGTTVTVSSSEPKSSDKTHTCPPCPAPEAAGAPSVFLFPPKPKDTLMISRTPEVTCVVVDVSHEDPEVKFNWYVDGVEVHNAKTKPREEQYNSTYRVVSVLTVLHQDWLNGKEYKCAVSNKALPAPIEKTISKAKGQPREPQVYTLPPSRDELTKNQVSLTCLVKGFYPSDIAVEWESNGQPENNYKTTPPVLDSDGSFFLYSKLTVDKSRWQQGNVFSCSVMHEALHNHYTQKSLSLSPGK | 10 nM | 11 nM | 271 nM | 0.011 s⁻¹ | 40000 M⁻¹ s⁻¹
6 | PSMA01019 Anti-PSMA scFv-Fc (Fc fusion, Monospecific, bivalent scFv-Fc, VL-VH) DVQITQSPSTLSASVGDRVTITCRASKSISKYLAWYQQKPGKAPKLLIHSGSSLESGVPSRFSGSGSGTEFTLTISSLQPDDFATYYCQQHIEYPWTFGQGTKVEIKGGGGSGGGGSGGGGSGGGGSEVQLLESGGGLVQPGGSLRLSCAASGYTFTDYYIHWVRQAPGKGLEWIGSFNPYNDYTSYADSVKGRATLSVDKSKNTAYLQMNSLRAEDTAVYYCARSDGYYDAMDYWGQGTLVTVSSSEPKSSDKTHTCPPCPAPEAAGAPSVFLFPPKPKDTLMISRTPEVTCVVVDVSHEDPEVKFNWYVDGVEVHNAKTKPREEQYNSTYRVVSVLTVLHQDWLNGKEYKCAVSNKALPAPIEKTISKAKGQPREPQVYTLPPSRDELTKNQVSLTCLVKGFYPSDIAVEWESNGQPENNYKTTPPVLDSDGSFFLYSKLTVDKSRWQQGNVFSCSVMHEALHNHYTQKSLSLSPGK | 8 nM | 4 nM | 15 nM | 0.00019 s⁻¹ | 13000 M⁻¹ s⁻¹
